Results on five proteins are retold here after article PMC7118133, “Dual functions of Aire CARD multimerization in the transcriptional regulation of T cell tolerance” (Nature Communications, 2020).

Data set [1] deals with the molecule itself. Kind of data set: negative-stain electron microscopy; filament formation of purified hAire CARD variants refolded from 6 M GdHCl by dialysis (20 mM HEPES pH 7.5, 1 M KCl, 5 mM βME, 16 h, 4 °C) and kept at 4 °C for another 24 h; diluted in TNE buffer to ~50–200 µg/ml, uranyl formate stain.
Data set [2] deals with the molecule itself. Kind of data set: negative-stain electron microscopy; filament formation of purified mAire CARD variants after cleavage of the NusA tag with HRV 3C (4 °C, 16 h); diluted in TNE buffer (100 mM Tris pH 8, 50 mM NaCl, 10 mM EDTA) to ~50–200 µg/ml, uranyl formate stain; WT in Fig. 1b also denatured and refolded.

B1: human Aire (hAire) CARD, wild type (domain or fragment, UniProt O43918 1-106, looked up)
chain: MATDAALRRLLRLHRTEIAVAVDSAFPLLHALADHDVVPEDKFQETLHLKEKEGCPQAFHALLSWLLTQDSTAILDFWRVLFKDYNLERYGRLQPILDSFPKDVDL
notes: Autoimmune Regulator (Aire), human, CARD, aa 1-106, subcloned into pET47; Construct His6-3C-hAire CARD; also called WT hAire CARD
Take B1: the binding result in data set [1] was “binds”.

B2: mouse Aire (mAire) CARD, wild type (domain or fragment, UniProt Q9Z0E3 1-105, looked up)
chain: MAGGDGMLRRLLRLHRTEIAVAIDSAFPLLHALADHDVVPEDKFQETLRLKEKEGCPQAFHALLSWLLTRDSGAILDFWRILFKDYNLERYSRLHSILDGFPKDV
notes: Autoimmune Regulator (Aire), mouse, CARD, aa 1-105, subcloned into pET50; Forms filaments after the NusA tag is cleaved off at the 3C site; also called WT mAire CARD; source: E. coli BL21(DE3), co-expressed with GroEL/ES + trigger factor, purified (Ni-NTA); tag cleaved with HRV 3C protease; not shown: His6-NusA-His6, N-terminal, cleaved
For the protein B2, the binding result in data set [2] is on record as “binds”.

B3: mouse Aire (mAire) CARD R70A/D71A (domain or fragment, UniProt Q9Z0E3 1-105, looked up)
chain: MAGGDGMLRRLLRLHRTEIAVAIDSAFPLLHALADHDVVPEDKFQETLRLKEKEGCPQAFHALLSWLLTAASGAILDFWRILFKDYNLERYSRLHSILDGFPKDV
notes: Autoimmune Regulator (Aire), mouse, CARD, aa 1-105, subcloned into pET50; The results print R70A/D71A, the methods R70A/R71A; also called R70A/R71A (so printed in the methods); source: E. coli BL21(DE3), co-expressed with GroEL/ES + trigger factor, induced at 25 °C for 4 h, purified (Ni-NTA; tag cleaved with HRV 3C protease); not shown: His6-NusA-His6, N-terminal, cleaved
Turning to B3, the binding result in data set [2] is “binds”.

B4: mouse Aire (mAire) CARD K51A/E52A (domain or fragment, UniProt Q9Z0E3 1-105, looked up)
chain: MAGGDGMLRRLLRLHRTEIAVAIDSAFPLLHALADHDVVPEDKFQETLRLAAKEGCPQAFHALLSWLLTRDSGAILDFWRILFKDYNLERYSRLHSILDGFPKDV
notes: Autoimmune Regulator (Aire), mouse, CARD, aa 1-105, subcloned into pET50; source: E. coli BL21(DE3), co-expressed with GroEL/ES + trigger factor, purified (Ni-NTA; tag cleaved with HRV 3C protease); not shown: His6-NusA-His6, N-terminal, cleaved
For B4, in data set [2], the binding result is reported as “binds”.

B5: mouse Aire (mAire) CARD K53A/E54A (domain or fragment, UniProt Q9Z0E3 1-105, looked up)
chain: MAGGDGMLRRLLRLHRTEIAVAIDSAFPLLHALADHDVVPEDKFQETLRLKEAAGCPQAFHALLSWLLTRDSGAILDFWRILFKDYNLERYSRLHSILDGFPKDV
notes: as for B4
In the case of B5, in data set [2], the binding result is listed as “binds”.
